{"source": "paper PMC2773007", "molecular_target": "Dvl2 PRR2 mutant (Δ370–376), FLAG-tagged (human) (UniProt O14641)", "sequence (O14641 other isoform, or with tags, fused parts or gaps mutant)": "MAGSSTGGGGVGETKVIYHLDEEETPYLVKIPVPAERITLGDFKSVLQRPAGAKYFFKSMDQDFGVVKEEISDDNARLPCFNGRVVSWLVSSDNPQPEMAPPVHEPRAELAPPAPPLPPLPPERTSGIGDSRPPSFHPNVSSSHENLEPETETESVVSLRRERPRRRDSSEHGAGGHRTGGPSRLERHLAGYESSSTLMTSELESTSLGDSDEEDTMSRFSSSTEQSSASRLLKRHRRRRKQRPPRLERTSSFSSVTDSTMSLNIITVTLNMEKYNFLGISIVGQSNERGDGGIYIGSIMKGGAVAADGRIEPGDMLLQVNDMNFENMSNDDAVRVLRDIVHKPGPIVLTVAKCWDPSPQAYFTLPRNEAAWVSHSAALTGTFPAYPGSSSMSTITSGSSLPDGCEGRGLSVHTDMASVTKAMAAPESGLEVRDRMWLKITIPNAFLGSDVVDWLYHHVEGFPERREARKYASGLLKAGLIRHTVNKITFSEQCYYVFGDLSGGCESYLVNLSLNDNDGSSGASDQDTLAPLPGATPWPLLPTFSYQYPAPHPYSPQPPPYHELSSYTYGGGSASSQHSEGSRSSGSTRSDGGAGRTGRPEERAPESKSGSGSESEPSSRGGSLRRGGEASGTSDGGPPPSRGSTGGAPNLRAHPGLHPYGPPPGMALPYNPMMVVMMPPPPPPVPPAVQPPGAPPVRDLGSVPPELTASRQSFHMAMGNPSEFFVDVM"}
{"substance": "HA-tagged Grb2 (human growth factor receptor-bound-2) (from UniProt P62993 1-217) (natural protein)", "values": [{"measurement": "sTF LEF/TCF luciferase reporter in HEK293 cells, co-expression of the Dvl2 mutant and Grb2", "value": 60, "unit": "% decrease"}]}
